B1: ΔCARD hNOD2-Fc (Fc fusion)
chain: CKKYMAKLRTTVSAQSRFLSTYDGAETLCLEDIYTENVLEVWADVGMAGPPQKSPATLGLEELFSTPGHLNDDADTVLVVGEAGSGKSTLLQRLHLLWAAGQDFQEFLFVFPFSCRQLQCMAKPLSVRTLLFEHCCWPDVGQEDIFQLLLDHPDRVLLTFDGFDEFKFRFTDRERHCSPTDPTSVQTLLFNLLQGNLLKNARKVVTSRPAAVSAFLRKYIRTEFNLKGFSEQGIELYLRKRHHEPGVADRLIRLLQETSALHGLCHLPVFSWMVSKCHQELLLQEGGSPKTTTDMYLLILQHFLLHATPPDSASQGLGPSLLRGRLPTLLHLGRLALWGLGMCCYVFSAQQLQAAQVSPDDISLGFLVRAKGVVPGSTAPLEFLHITFQCFFAAFYLALSADVPPALLRHLFNCGRPGNSPMARLLPTMCIQASEGKDSSVAALLQKAEPHNLQITAAFLAGLLSREHWGLLAECQTSEKALLRRQACARWCLARSLRKHFHSIPPAAPGEAKSVHAMPGFIWLIRSLYEMQEERLARKAARGLNVGHLKLTFCSVGPTECAALAFVLQHLRRPVALQLDYNSVGDIGVEQLLPCLGVCKALYLRDNNISDRGICKLIECALHCEQLQKLALFNNKLTDGCAHSMAKLLACRQNFLALRLGNNYITAAGAQVLAEGLRGNTSLQFLGFWGNRVGDEGAQALAEALGDHQSLRWLSLVGNNIGSVGAQALALMLAKNVMLEELCLEENHLQDEGVCSLAEGLKKNSSLKILKLSNNCITYLGAEALLQALERNDTILEVWLRGNTFSLEEVDKLGCRDTRLLL
B2: ΔNBD hNOD2-Fc (Fc fusion)
chain: MGEEGGSASHDEEERASVLLGHSPGCEMCSQEAFQAQRSQLVELLVSGSLEGFESVLDWLLSWEVLSWEDYEGFHLLGQPLSHLARRLLDTVWNKGTWACQKLIAAAQEAQADSQSPKLHGCWDPHSLHPARDLQSHRPAIVRRLHSHVENMLDLAWERGFVSQYECDEIRLPIFTPSQRARRLLDLATVKANGLAAFLLQHVQELPVPLALPLEAATCKKYMAKLRTTVSAQSRFLSTYDGAETLCLEDIYTENVLEVWADVGMAGPPQKSPATLGLEELFSTPGHLNDDAADVPPALLRHLFNCGRPGNSPMARLLPTMCIQASEGKDSSVAALLQKAEPHNLQITAAFLAGLLSREHWGLLAECQTSEKALLRRQACARWCLARSLRKHFHSIPPAAPGEAKSVHAMPGFIWLIRSLYEMQEERLARKAARGLNVGHLKLTFCSVGPTECAALAFVLQHLRRPVALQLDYNSVGDIGVEQLLPCLGVCKALYLRDNNISDRGICKLIECALHCEQLQKLALFNNKLTDGCAHSMAKLLACRQNFLALRLGNNYITAAGAQVLAEGLRGNTSLQFLGFWGNRVGDEGAQALAEALGDHQSLRWLSLVGNNIGSVGAQALALMLAKNVMLEELCLEENHLQDEGVCSLAEGLKKNSSLKILKLSNNCITYLGAEALLQALERNDTILEVWLRGNTFSLEEVDKLGCRDTRLLL

Target: α-Synuclein preformed fibrils (α-Syn PFF) (mouse, UniProt O55042 1-140)
Assay: ELISA

| Binder | Kd [µM] |
| --- | --- |
| B1 | 16.4 |
| B2 | 0.42 |
